# Data from a protein production outcome set (Wang et al. 2014).
# Assay: label from the status in PepcDB records
sequence,measurement,value
MTRNGHERAKPLRPGDPTELGAYRIVGRLGRGGMGTVYLGKDTAERLVAIKLIRPDLSEDPAFRQRFAREVAAARRVARFSTAAVLDAQLEGDPLFIVSEYVAGPNLAEAIQADGPMYGGTLESLAMGVAAALTAIHGAGVIHRDLKPANVLLSSVGPKVIDFGIARALDDDTAVTRSSQLMGTPAYLAPELIAGEPPTPMSDIFSWGCLVAYAGTGRAPFDAPTVPAVLHQIVAGQPNLSGLDPALRELVESALDKFPDNRPTAQQLLSRLVGQEEMSLDAVHETVVRSWTPPATSRPEAVPSGPNPAAVPAQVGAAAAAPPTQPGTTPPGGQPSATPSAGHPGATPPAGQPAAAPPFPEHSPQTPPWAAPTPPGGNGTEQKTRGTRFSPAIAIAGGSAVALLAGAVIGGLVLFRSPEVPEGMQVYADDFTHQDGWAGYDFDPENTFSWSGYYQGGYALSADGDTRTSTVSVAPPAGLPEQVRVSATTQVVSGPDYGTYGLHCFYNDDGDNVTYYSATVRVDGSAAQIRRHGGEQGSTHLEEVTAKPVSGFLTPSRDAEEAPVNTFDFTCELDPEADTVTLNLWLNGEHVLEAVDTNPLPYDGEDAPQAGMLAGRGIGGGDNIVVVFDDFAVYQLDGGQRERS,protein production,failed
MTDESDALCATEKEIMHATHRALVNSGYAELSISRISDELDKAKSTIYHYYDSKDALLLRFLRFTVDRFEATINTSIGDNPKEDLNHIISTLLPCQLPEEKRQLHSVLVTLSPQALERAVFREQFTEIDTRLATIIEKTVRRGVDADVFRDVDPTHAAEHILATIKGTMYSRLTTNREAATAAAKASLFSYIDSHLIS,protein production,failed
GSSGSSGMDEDVLTTLKILIIGESGVGKSSLLLRFTDDTFDPELAATIGVDFKVKTISVDGNKAKLAIWDTAGQERFRTLTPSYYRGAQGVILVYDVTRRDTFVKLDNWLNELETYCTRNDIVNMLVGNKIDKENREVDRNEGLKFARKHSMLFIEASAKTCDGVQCAFEELVEKIIQTPGLWESENQNSGPSSG,protein production,not failed
MDSGKSRSLETTVKRVYRDLLLPKINTSKKMSTLTNSPSSLEGTPGIKKNSGEMQAEASAERVKLTKSIKEKQNNELEKVALKRKADSEEKLVGKKEAKIMELDNQLVTTVPLPHIPLKNIMDVEMKLVYVDEEDVSYEFAQPNMCLGLQATGQTATTMPPASPRDLTTLPQIDKWLQVALKDASSCYRQKKYAVAAGQFRTALELCSKGAALGKPFEAHAEDIASIASFIETKLVTCYLRMRKPDLALNHAHRSIVLNPAYFRNHLRQAAVFRCLERYSEAARSAMIADYMFWLCGGSEHSVSKLIKLYWQAMIEEAITRAEAFSVMYTPFATRIKPENIEKVKEVFMRTHPTYVDCIYTDTQGLHVLPQTADWSCFPPQQYLLTLGFKNKEDGKFLEKVSSRKLPTYTEHKTPFSPLTREDTVRHMETVGKRILPILDFIRSTQLNGNFHACSGVMEKLHYASLLSRLQRVKEQAQVINQAMAELATVPYLQDISQQEAELLQSLMADAMDTLEGKKSDKERVWNTIQKVKF,protein production,failed
MDRFDAMRAFARVVETGSFTKAADTLHMSKTSVTQLVQQLEARLRVRLLNRTTRKVNATADGAAYYERVRQLLADLEDAETSLSGASATPGGRLRVDVPSPFASTILVPALPAFQARYPDILLHLGVSDREVDLIDENVDCVIRGGQIGNLSLAARHVGDLQLGVYASPGYLARAGVPAHPRELQDAQHRIIGFSWSRARRLFPCAMRRRADERIEVAGRHALLLDEGNAYLAAGLAAMGVIGVPTYMAEAHVERGALIRLFGDWRLDPMPLYIAYPQNRHVSAKLRVFIDWIVELMARHAPVTDAPPPHRSARMPGGPAAIPTDITGA,protein production,failed
MNEYDEECLLTFLKKQSQLFDEPVAETMEEAEAFLEDCMAVVVDSLDEVREYFEESGADVENMLEHHHHHH,protein production,not failed
MDIQNMPREQLGVCAEGNLHSVYLMFNANDNVESQLRPCIANVAQYIYELTDQYSDSAFNGFVAIGANYWDSLYPESRPEMLKPFPAMQEGNREAPAIEYDLFVHLRCDRYDILHLVANEISQMFEDLVELVEEERGFRFMDSRDLTGFVDGTENPKGRHRQEVALVGSEDPEFKGGSYIHVQKYAHNLSKWHRLPLKKQEDIIGRTKQDNIEYESEDKPLTSHIKRVNLKDENGKSIEILRQSMPYGSLKEQGLMFISTCRTPDHFEKMLHSMVFGDGAGNHDHLMHFTSALTGSSFFAPSLDFLMQFDN,protein production,not failed
VFSSEDITETSPDKWLIDGDTPLDEVERAIGYELPEGDYETISGLLFDHANALLKTGDVIEIPLDFEPEDYLNNTSPTQRILRITVLEVERNVPVKLALALLE,protein production,not failed
MLDISFGEFVLIGVVALVVLGPERLPTVARTVGALVARAQRFVANVKADMQQQANLQGLDSLRQDLQDAAHSFRGQLEAEVQQVRDAIDQNAADARALAEQAAEPFHEAERTIHGGLAPDAEAEAREAETHPAEPAPAAQADVPPRDENQLDLFDDLPPHRPPASQPSASQARE,protein production,failed
MSVSIILMGLFVGALVGLTGVGGAALLTPLLIVLGINPSIAVGTDLVYNSITKLFGVASHWRQKTINFKLVKYLAIGSIPSASLAIGILHLFPAFHQHQEEIIKHALGYVLTLVAISIIVRLFLDRKLRPNRWQLMPLENKRALTILIGVVFGFIVGLTSIGSGSLFAIAMIYLFNMKASQIVGTDIAHAFLLVTAAGILNASFGSVDYMLAANLLLGSIPGVLIGSHLSPRFSPRPLQFIMASIILVSGLKLI,protein production,failed
MNNIRLLNQNDLDSYIELMKFGHHNYEWDRYYLENVSIDRLKTILSNHTDYWNIFGAFEDDELVATCTLKQMNYVGKCHKAILENNFVKNNDEIVNRELINHIIQYAKEQNIETLMIAIASNNISAKVFFSSIGFENLAFEKNASKIGNEYFDENWLIYSTTE,protein production,failed
MSITRRDILKGAAATGAIAATSVLSGCQKTGATNSMADLAHKIKRPNLLIIFPDEMRAQALGFMGEDPSLTPNLNRFAKDSAVLKQAVSNFPLCTPFRGMLMTGQYPYRNGIQGNSHTATPGMFGGKDFGIELKKNQSTWSDILSQQGYSMGYIGKWHLDAPEAPFVPSYNNPMEGRYWNDWTTPDRRHGFDFWYSYGTYDKHLTPMYWTNDTPRDQPLHINQWSPEHEADIAIKYLRNENGNYRNNDKPFTLVVSMNPPHSPYDQVPQKYLDRFKESSRTLNSRPNVQWDKEYLEGYGPEYFKEYMAMVNGVDEQFGRIVDELDALNLAKDTLVVFFSDHGCCMGSNGNPTKNVHYEEAMRIPMMFRWPGKIAPKSDDLLFSAPDIYPTLFGLMGMDDLIPDTVEGTDFSKTVKSESGDIKPTSQFYTFMPYGGQSYGRRGIRNKQYTLMIDRKIGKPLTYVLHDNQVDPYQMKNIAEQQPELISQLIQNELMPWLEHTGDPWRPTEVPKNTANAYT,protein production,failed
MTEKKIDFKKEEKKFYAPKRKPERIFVPEMNFLMVDGKGDPDGEEYQKAVQSLYAIAYTIKMSKMGETRLDGYSDFVVPPLEGFWWSEGKFDLKDRDAWLWTSILRQPDFVTEEVLEWAKEVARKKKPDVDTSRVKLVRFEEGECVQMMHVGPFSEEVHTVAEMHQFMETEGLRNDTGAIRKHHEIYLSDPRKANPEKMKTILRLPVS,protein production,not failed
MLVAAACFTIMNVLIKEASAKFALGSGELVFWRMLFSTVALGAAAVLRRDTFRTPHWKNHLNRSMVGTGAMLLLFYAVTHLPLATGVTLSYTSSIFLAVFSFLILKERISVYTQAVLLLGFAGVVLLLNPSFRSGQETAALAGLAGGAMSGWAYLKVRELSLAGEPGWRVVFYLSVTGVAMSSVWATLTGWHTLSFPSAVYLSCIGVSALIAQLSMTRAYKVGDKFTVASLSYMTVVFSALSAAFFLGEELFWQEILGMCIIILSGILSSIRPTAFKQRLQSLFRQR,protein production,failed
MSMVGAIILSIIIGIAAFFIHPLLYIGLALMGLIGWQRVRREREHFHTRVLRIRADYVVPFLPGLIAGSLLSLVTIVIGLTVSIDWLWLLLIVYLLTIVTMNIRWISPAYVGAFMIGVVLLAPFVTTGWPWFDERLQSASQIPVLVIMYLTVLLLSAEGMLIAKRGGSFSSPVVVRSKRGKWVGFHRVKRLWLLPVVLFIPEGAIPTFSFWPILTVAGVSLQPLVVPFLIGTDFKIWSSLPKVVSRKVGNQVLGLALTLALIVCITWYVPWLSVLFAIVAIVGREGIHLMAKIKDRSSTSLFTNQGTGCKVLGILPGSPAEKMGIKIGETILRVNGKMVNNEYSFYEALQENSAFCRLEVIDKAGEVRFAQGALYDGEHHQLGVLLVKEDRELQDSVI,protein production,failed
MVVRQIRALLSSLLWAWRRARLQGRSAFQLVRACLREGAKGPRHFARRMAAYASGGSASPPPVSLDAYESWHSALPQLEVPADSGMISVIIPVCNTPELFLREAIESVRTQTYQNWEICIHDDASNEPHVGRILAEFKKRIPNLRVTRSETRSGIAATTNAALASARGRWVTFLDHDDVLDRNALAAVVDCHIKTGSAVVYTDHDMLGEDGRLRNPYFKPDWNYDLFLAQMYLGHLVSFEHDLIKRVGLTRSECDGSQDYDLVLRCVAAGAKVGHVPRVLYHWRMHAGSTAANADSKPYAHDSGKRAIQYHVDAVYPGAQVEDGPHLFCYDVRYPYAQHAPKASIIIPTRDGLDLLRPCIESIQGRTDYTNFEIIVVDNGSKDPATLEWLDAMSNEPWFRVLQADVPFNWSALNNLAAASAEGEVLVFLNNDTEVASADWLQRLVENALRPDVGACGALLLYADGSIQHAGVVVGMGGWADHVFKGQQPIHHQHLFVSPILRREVLAVTGACVAISRANFDAIGGFDESFVVCGSDVELCLRAMANGKRTVYVPEAILIHHESKTRDPRVIPESDFVRSAQAYSPYRESGDPFYSPNLDYMSPSPALRGAQADA,protein production,failed
EVGVNMAVTPGKVIFQNEIMQLIQYEPATATVQRTPLLIVPPWINKYYILDLKPEKSFIKWCVDQGLTVFVISWVNPDKSLADKDFADYMKLGPLTAMDVVEKVTGEMKVHTLGYCVGGTLLASTLAWLAERRRVRVTSATFLTTQVDFTHAGDLMVFVDEEQISAVEREMKVTGVLEGAKMAMAFNMLRPNDLIWSYVVNNYLKGQPPQAFDLLHWNSDATRMPAANHSYYLRNCYLDNKLSAGTMVLDNTTLDLTKVKVPIYNLATREDHIAPAESVLYGSQFFGGPVKFVLSGSGHI,protein production,failed
MSSATGRWRESPPTAVKNEEDNGRCPRELRVQSEAVLAGRYRLEERLGRGGMGEVWRAFDPHLEREVAVKLILSGDNDGVLIRRFQREARISANIQHPNITAVHDFGHHEGQLFLVMELLRGRDLGAVLADHPQGMPLDLVVSVAVQAADALRAAHTHRVVHRDLKPGNLFLLDTGHVKVCDFGIAHIADATSQLTAVGTALGTPAFMPPEQWKGEEVDSRSDVYALGGVMHTMLTGRIPFTGPLPALLAQHLTQDPPPIREFRPDVPLELADLVARMMAKDPAARPDSHELGELIYRAAAPEASGSPAFFSPQIAPQALPTAPPTAAPVPPQPSHATGYAAPSQWMPAAPQPHPTAHPPAEGDPQTMFTLGLRHREQGDIAGAESWYRKAAEAGHLDSMFNLALLSRERGNLVEAESWYRRAAEVGDVDAMVNLGDLLKERGESAEAELWHRRAAEAGHIASMHTLGNLLYSKGDTAEAETWWRRAAEAGNIRAMGVLGNLLEQRGDTFGAEQWYRRAAEAGNLDAMVNLGVLLENRHDTFGAEQWYRRAADAGDIDAMVNLGNLLHGRGDMGSAQYWWQRAAQTGNTRALNHLNQMG,protein production,failed
